# Data reported in patent US11260100B2, “Compositions targeting the interaction domain between p27Kip1 and Brk and methods of use thereof to inhibit p27 Y phosphorylation and cdk4 activity” (The Research Foundation for the State University of New York, priority 2014, dated 2022).
# B1: Alt-Brk: alternative splice variant of Brk (SEQ ID NO: 17), 15 KD protein with SH3 domain, lacks kinase domain (protein, listed as Homo sapiens)
# chain: MVSRDQAHLGPKYVGLWDFKSRTDEELSFRAGDVFHVARKEEQWWWATLLDEAGGAVAQGYVPHNYLAERETVESEPAGHAGCAALQDLAACRGPAAPERGGVLPQPARACELPQGPEPVPRPAAGRALPEARA
# Assays:
# [1] = system: MCF-7 inducible ALT cells; assay: Mouse xenograft model, MCF7-ALT tumors; assay type: in vivo, NOD/SCID mice; details: day 17; start volume 200 mm3; Palbociclib 100 mg/kg daily gavage, doxycycline 0.1 mg/ml in drinking water
# Method: FIG. 14: ALT slows tumor growth in animals, and ALT and PD dual treatment causes tumor regression. MCF-7 inducible ALT cells were injected into the 4th mammary gland of NOD/SCID mice. Tumors were allowed to develop to a volume of 200 mm3, before treatment. Vehicle: daily gavage with PBS. PD: Daily gavage of Palbociclib 100 mg/kg. Doxy: 0.1 mg/ml doxycycline added to the drinking water to allow continuous uptake and induction of ALT in the human cancer cells. Doxy+PD: Daily gavage of Palbociclib 100 mg/kg and 0.1 mg/ml doxycycline added to the drinking water. Vehicle treated animals rapidly progressed and by 17 days, tumor volumes were >3000 mm PD treatment slowed down tumor growth but by day 17, tumors were >2500. […] However, dual ALT and PD (doxy/PD) treatment, caused tumor regression by […] (e.g., from 200 mm3 down to 0-40 mm3), by day 5, which was durable up to day 19.
# NP-ALT was added to cell media in the absence of fetal bovine serum for 6 hours. This media was removed and replaced with FBS+media, and cells were allowed to recover for 2 days, at which time, cell counts were determined. Counts were standardized to the proliferation seen in the NO FBS untreated control. • Expression in vivo. […] Tumor volume was monitored every other day using digital calipers. […] Doxy+PD: Daily gavage of Palbociclib 100 mg/kg and 0.1 mg/ml doxycycline added to the drinking water. • Quantitative RT-PCR. […]
# [2] = system: MCF7 cells; assay: Tetracycline inducible Alt Brk expression in MCF7 cells; assay type: cell-based, human; details: +Tet
# Method: FIGS. 8A-8G: Alt Brk (SEQ ID NO: 17) acts as an endogenous inhibitor of Brk. (FIG. 8A) Flag tagged WT p27 was incubated with increasing amount of Flag tagged Alt-Brk (lanes 5-7) in presence of equal amount of Brk. Lane 5: +equimolar Brk and Alt, lane 6: ++2.5×Alt, lane 7: +++5×Alt Immunoblot analysis was performed using Flag, pY88 and pY74 antibodies. (FIG. 8B) Alt-Brk expressing cells were plated on day 0. They were induced (+Tet) or uninduced (−Tet) on day 1 and cells were harvested on days 2, 3 and 4 Immunoblot analysis was performed using N-terminal Brk, C-terminal Brk, Rb, Ser780 pRb, Flag or Actin antibodies. (FIG. 8C) p27 was immunoprecipitated from induced (+) or un-induced (−) Alt Brk expressing cells and immunoblot analysis was performed with p27, pY88 and pY74 antibodies. (FIG. 8D) Alt Brk or TRE3G vector alone cells were treated with + or −Tet and cell counts were used to monitor proliferation. […] (FIG. 8F) p27 was immunoprecipitated from MCF7 cells that were either contact arrested (G0), asynchronous (A), or serum starved with 1% and 0% serum for 48 h. Immunoblot analysis was performed to probe for p27, pY88 and pY74. IgG and Mv1Lu lysates served as a negative control. (FIG. 8G) Expression of WT or mutant p27s was induced by adding Tetracycline to the culture media. p27 was immunoprecipitated from cell lysates and probed for p27, pY88 and pY74 Immunoprecipitation with IgG served as a negative control.
# NP-ALT was added to cell media in the absence of fetal bovine serum for 6 hours. This media was removed and replaced with FBS+media, and cells were allowed to recover for 2 days, at which time, cell counts were determined. Counts were standardized to the proliferation seen in the NO FBS untreated control. • Expression in vivo. Generation of the WT-Brk, KM-Brk, and YF-Brk has been described (32) Amphotropic retroviruses were generated by transfection using Lipofectamine 2000 (Life Technologies 11668-019) of HEK 293 cells with pAmpho envelope and pBabe or pTRE3G tetracycline inducible constructs. Following viral infection of MCF7 cells, stable integrants were isolated by puromycin selection. Colonies were pooled to generate stable, puromycin resistant clones. Stable expression was verified by immunoblot and immunofluorescence analysis. Tetracycline inducible expression was achieved by the addition of TetExpress (Clontech) to the media. • Mouse xenograft model. Female NOD/SCID 8 week old mice were injected with MCF7-ALT cells in the 4th mammary gland. Tumors were allowed to develop to a volume of 200 mm3, before treatment. Tumor volume was monitored every other day using digital calipers. Vehicle: daily gavage with PBS. […] Doxy+PD: Daily gavage of Palbociclib 100 mg/kg and 0.1 mg/ml doxycycline added to the drinking water. • Quantitative RT-PCR. […]
molecule,measurement,setting,value
B1,tumor volume,[1],~1500 mm3
same,Rb phosphorylation on residue Ser780,[2],Rb phosphorylation was reduced
same,"cell cycle effect (cell counting, FACS)",[2],arrested in G1 phase
same,endogenous p27 Y74 phosphorylation,[2],unchanged
same,endogenous p27 Y88 phosphorylation,[2],reduced
